{"source": "paper PMC5673899", "about": "“Structural basis for receptor recognition of pollen tube attraction peptides” (Nature Communications, 2017)", "molecules": {"B1": {"name": "AtLURE1.2: mature form of AtLURE1.2 (residues 20–90), defensin-like cysteine-rich peptide expressed in insect cells (protein)", "chain": "TLINGSSDEERTYSFSPTTSPFDPRSLNQELKIGRIGYCFDCARACMRRGKYIRTCSFERKLCRCSISDIK", "modifications": "left off: His6, N-terminal, cleaved | SUMO, N-terminal, cleaved", "notes": "mature form of AtLURE1.2 (residues 20–90), defensin-like cysteine-rich peptide expressed in insect cells"}}, "key": {"[1]": {"test_system": "prk6 pollen tubes transformed with PRK6 D234A", "experiment": "Gelatin-beads assay, prk6 pollen tubes transformed with D234A PRK6", "type": "cell-based, Arabidopsis", "settings": "beads with 250 nM wild-type AtLURE1.2; 10–23 pollen tubes per assay, three assays", "procedure": "(§1) Attraction activities of mutant AtLURE1.2 peptides were examined for semi-in-vivo pollen tubes growing through cut, pollinated pistils by gelatin-beads assay and wavy assay, [20]. For the gelatin-beads assay, pollen tubes were grown on solid pollen germination medium poured into a mold made with 1-mm thick silicone rubber and cover glasses. After hand-pollination, the topside cover glass was removed and the medium was covered with hydrated silicone oil (KF-96–100CS; Shin-Etsu). Attraction of pollen tubes toward the peptide was evaluated using AtLURE1 peptide containing gelatine beads under an inverted microscope (IX71, Olympus) equipped with a micro-manipulator (Narishige). For the AtLURE1-responsive wavy assay, the purified AtLURE1.2 peptide was added to solid pollen germination medium, which was melted at 70 °C and then cooled to a certain degree. The mixture was mixed by vortexing and poured into the mold. Pollen tubes of each genotype were grown through cut styles, as mentioned above. Each peptide (25 μM in 10 mM Bis-Tris (pH 6.0) and 100 mM NaCl) was diluted to 250 nM by cultivation medium in both assays. To examine reactivity of PRK6 mutants to AtLURE1.2, constructs for PRK6 mutants, D234A, N239A, and ΔN239I240, were generated by site-directed mutagenesis from a wild-type PRK6 vector, pPZP221-pPRK6::PRK6-mRuby2 (ref. [20]). […]"}, "MIK2^LRR": {"test_system": "MIK2^LRR", "experiment": "In vitro pull-down with MIK2^LRR", "type": "binding, Arabidopsis", "settings": "Ni-NTA, excess AtLURE1.2, on ice 30 min, washed five times; SDS-PAGE, Coomassie blue", "excerpt": "(§2) The genes of AtPRK3 ^LRR (residues 1–241), AtPRK4 ^LRR (residues 1–277), AtPRK5 ^LRR (residues 1–279), AtPRK6 ^LRR (residues 1–262), MIK1 ^LRR (residues 1–633), MIK2 ^LRR (residues 1–707) were amplified from Arabidopsis cDNA library by PCR and cloned into pFastBac-1 vector with a C-terminal 6 × His-tag. Their identities were confirmed by sequencing. The mature form of AtLURE1.1 (residues 20–94), AtLURE1.2 (residues 20–90), AtLURE1.3 (residues 21–91), and AtLURE1.4 (residues 20–90) were cloned into pFastBac-1 vector, with a modified N-terminal hemolin signal peptide and 6 × His-SUMO tag. Point mutation constructs were generated by QuickChange Site-Directed Mutagenesis Kit (Strategene). All the proteins were expressed using the Bac-to-Bac baculovirus expression system (Invitrogen) in High Five cells at 22 °C. One liter of High Five cells (2.0 × 10^6 cells mL^−1) cultured in the medium from Expression Systems was infected with 25 ml recombinant baculovirus and the media was collected after 72 h of infection. Secreted LRR proteins were purified using Ni-NTA (Novagen) and size-exclusion chromatography (Hiload 200, GE Healthcare) in buffer containing 10 mM Bis-Tris pH 6.0 and 100 mM NaCl. […]\n(§3) The purified His-tagged ectodomains of AtPRK proteins and MIK1, 2 were used to pull-down the AtLURE1.2 peptide. […] All the eluted samples were analyzed by SDS-PAGE and visualized by Coomassie blue staining. […]"}, "PRK6 N239A": {"test_system": "PRK6 N239A", "experiment": "In vitro pull-down with AtPRK6^LRR mutant N239A", "type": "binding, Arabidopsis thaliana", "excerpt": "as §2, §3"}, "[2]": {"test_system": "prk6 pollen tubes transformed with PRK6 of wild-type", "experiment": "Gelatin-beads assay, prk6 pollen tubes transformed with wild-type PRK6", "type": "cell-based, Arabidopsis", "settings": "beads with 250 nM wild-type AtLURE1.2; 10–23 pollen tubes per assay, three assays", "procedure": "as §1"}, "[3]": {"test_system": "prk6 pollen tubes transformed with PRK6 D234A", "experiment": "Wavy assay, prk6 pollen tubes transformed with D234A PRK6", "type": "cell-based, Arabidopsis", "settings": "250 nM wild-type AtLURE1.2 in medium", "procedure": "as §1, with “assays.” for “assays. To examine reactivity of PRK6 mutants to AtLURE1.2, constructs for PRK6 mutants, D234A, N239A, and ΔN239I240, were generated by site-directed mutagenesis from a wild-type PRK6 vector, pPZP221-pPRK6::PRK6-mRuby2 (ref. [20]).”\n(§4) pollen tubes. Fluorescence is from mRuby2 fused to the C-terminal of PRK6 receptors, showing that all of mutant PRK6 receptors localize normally to the plasma membrane of the pollen tube tip. […]"}, "[4]": {"test_system": "prk6 pollen tubes transformed with PRK6 of wild-type", "experiment": "Wavy assay, prk6 pollen tubes transformed with wild-type PRK6", "type": "cell-based, Arabidopsis", "settings": "250 nM wild-type AtLURE1.2 in medium", "procedure": "as §1, with “assays.” for “assays. To examine reactivity of PRK6 mutants to AtLURE1.2, constructs for PRK6 mutants, D234A, N239A, and ΔN239I240, were generated by site-directed mutagenesis from a wild-type PRK6 vector, pPZP221-pPRK6::PRK6-mRuby2 (ref. [20]).”\nas §4"}, "[5]": {"test_system": "prk6 pollen tubes transformed with PRK6 N239A", "experiment": "Gelatin-beads assay, prk6 pollen tubes transformed with N239A PRK6", "type": "cell-based, Arabidopsis", "settings": "beads with 250 nM wild-type AtLURE1.2; 10–23 pollen tubes per assay, three assays", "procedure": "as §1"}}, "note": "Entries after “also recorded” stand apart in the source; their conditions may differ."}
{"molecule": "B1", "values": [{"measurement": "pollen tube attraction", "setting": "[1]", "value": "significantly lower than those in wild-type and N239A PRK6 pollen tubes; also recorded: significantly reduced"}, {"measurement": "interaction in pull-down assay", "setting": "MIK2^LRR", "value": "none of the other LRR proteins was found to interact"}, {"measurement": "AtLURE1.2 binding activity of receptor mutant", "setting": "PRK6 N239A", "value": "still retained the AtLURE1.2 binding activity"}, {"measurement": "pollen tube attraction", "setting": "[2]", "value": "attraction was normally observed"}, {"measurement": "wavy and branched pollen tube behavior", "setting": "[3]", "value": "branched behavior is not observed; also recorded: greatly compromised"}, {"measurement": "wavy and branched pollen tube behavior", "setting": "[4]", "value": "severe wavy and branched behavior"}, {"measurement": "pollen tube attraction / reactivity", "setting": "[5]", "value": "comparable reactivity to the wild-type PRK6"}]}
